Patent US20200181259A1
Where two headings read alike, the source gives them in different places.

Tests used:
[1] = molecular target: human CD47 overexpressed on CHO cells (human) (UniProt Q08722); assay: flow cytometry competition on CHO-hCD47 cells against 200 nM mouse Fc-labelled SIRPα
[2] = molecular target: human CD47 overexpressed on CHO cells (human) (UniProt Q08722); assay: as above; remark: listed apart in the source

B1: AB6.12, control humanized anti-CD47 antibody transiently expressed in 293 HEK cells (antibody, from another filing, V domains shown)
VH: QMQLVQSGAEVKKTGSSVKVSCKASGFNIKDYYLHWVRQAPGQALEWMGWIDPDQGDTEYAQKFQDRVTITRDRSMSTAYMELSSLRSEDTAMYYCNAAYGSSSYPMDYWGQGTTVTV
VL: NIQMTQSPSAMSASVGDRVTITCKASQDIHRYLSWFQQKPGKVPKHLIYRANRLVSGVPSRFSGSGSGTEFTLTISSLQPEDFATYYCLQYDEFPYTFGGGTKVEIK
IC50 [1]: 3.38 nM | IC50 [2]: 1.77 nM
